Test results published in PMC11718230 (Nature Communications, 2025).

Target: T1, ATTO647N-STX17 SNARE domain (residues 161-231, E198C) (UniProt P56962 161-231, E198C, ATTO647N maleimide conjugated (cysteine introduced by E198C))
T1 sequence (looked up): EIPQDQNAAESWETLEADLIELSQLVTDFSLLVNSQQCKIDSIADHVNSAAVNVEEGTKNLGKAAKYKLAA
Assay: FRET or BRET

Binder | binding result
ATTO550-VAMP7 SNARE domain (residues 123-187, E152C) (domain or fragment, UniProt P51809 123-187, looked up) LDKVMETQAQVDELKGIMVRNIDLVAQRGC(ATTO550 maleimide)RLELLIDKTENLVDSSVTFKTTSRNLARAMCMKNL | binds
ATTO550-VAMP8 SNARE domain (10-74, E39C) (domain or fragment, UniProt Q9BV40 10-74, looked up) NDRVRNLQSEVEGVKNIMTQNVERILARGC(ATTO550 maleimide)NLEHLRNKTEDLEATSEHFKTTSQKVARKFWWKNV | binds
